Among the data in patent US20150346200A1 are EC50 values, retold here.

This assay has as its target anti-human β-tryptase antibody. The experiment in a line: sandwich ELISA dose response: plate coated with anti-human β-tryptase antibody, β-tryptase calibrator titrated, detected with AP-conjugated anti-human β-tryptase, luminescence.

As to “human β-tryptase (from UniProt Q15661 31-275) (enzyme)”, the EC50 (commonly the concentration that produces a half-maximal response) is 0.065 µg/mL.
